From US11312984B2, “High-purity steviol glycosides” (PURECIRCLE SDN BHD, priority 2013, dated 2022)

B1: S115N01 A1: UDP-glucosyltransferase Os03g0702500, Oryza sativa Japonica Group, SEQ ID NO: 3 (protein, listed as Oryza sativa)
chain: MDDAHSSQSPLHVVIFPWLAFGHLLPCLDLAERLAARGHRVSFVSTPRNLARLPPVRPELAELVDLVALPLPRVDGLPDGAEATSDVPFDKFELHRKAFDGLAAPFSAFLDTACAGGKRPDWVLADLMHHWVALASQERGVPCAMILPCSAAVVASSAPPTESSADQREAIVRSMGTAAPSFEAKRATEEFATEGASGVSIMTRYSLTLQRSKLVAMRSCPELEPGAFTILTRFYGKPVVPFGLLPPRPDGARGVSKNGKHDAIMQWLDAQPAKSVVYVALGSEAPMSADLLRELAHGLDLAGTRFLWAMRKPAGVDADSVLPAGFLGRTGERGLVTTRWAPQVSILAHAAVCAFLTHCGWGSVVEGLQFGHPLIMLPILGDQGPNARILEGRKLGVAVPRNDEDGSFDRGGVAGAVRAVVVEEEGKTFFANARKLQEIVADREREERCIDEFVQHLTSWNELKNNSDGQYP
B2: S115N06 C2: UDP-glucoronosyl/UDP-glucosyl transferase family protein, Arabidopsis lyrata subsp. lyrata, SEQ ID NO: 7 (protein, listed as Arabidopsis lyrata)
chain: MDDKKEEVMHIAMFPWLAMGHLLPFLRLSKLLAQKGHKISFISTPRNILRLPKLPSNLSSSITFVSFPLPSISGLPPSSESSMDVPYNKQQSLKAAFDLLQPPLTEFLRLSSPDWIIYDYASHWLPSIAKELGISKAFFSLFNAATLCFMGPSSSLIEESRSTPEDFTVVPPWVPFKSTIVFRYHEVSRYVEKTDEDVTGVSDSVRFGYTIDGSDAVFVRSCPEFEPEWFSLLQDLYRKPVFPIGFLPPVIEDDDDDTTWVRIKEWLDKQRVNSVVYVSLGTEASLRREELTELALGLEKSETPFFWVLRNEPQIPDGFEERVKGRGMVHVGWVPQVKILSHESVGGFLTHCGWNSVVEGIGFGKVPIFLPVLNEQGLNTRLLQGKGLGVEVLRDERDGSFGSDSVADSVRLVMIDDAGEEIREKVKLMKGLFGNMDENIRYVDELVGFMRNDESSQLKEEEEEDDCSDDQSSEVSSETDEKELNLDLKEEKRRISVYKSLSSEFDDYVANEKMG
B3: S115N06 E1: hypothetical protein OsJ_04191, Oryza sativa Japonica Group, SEQ ID NO: 6 (protein, listed as Oryza sativa)
chain: MHVVMLPWLAFGHILPFAEFAKRVARQGHRVTLFSTPRNTRRLIDVPPSLAGRIRVVDIPLPRVEHLPEHAEATIDLPSNDLRPYLRRAYDEAFSRELSRLLQETGPSRPDWVLADYAAYWAPAAASRHGVPCAFLSLFGAAALCFFGPAETLQGRGPYAKTEPAHLTAVPEYVPFPTTVAFRGNEARELFKPSLIPDESGVSESYRFSQSIEGCQLVAVRSNQEFEPEWLELLGELYQKPVIPIGMFPPPPPQDVAGHEETLRWLDRQEPNSVVYAAFGSEVKLTAEQLQRIALGLEASELPFIWAFRAPPDAGDGDGLPGGFKERVNGRGVVCRGWVPQVKFLAHASVGGFLTHAGWNSIAEGLANGVRLVLLPLMFEQGLNARQLAEKKVAVEVARDEDDGSFAANDIVDALRRVMVGEEGDEFGVKVKELAKVFGDDEVNDRYVRDFLKCLSEYKMQRQG
B4: UGTSL2: UGTSL2, GI_460410132, Solanum lycopersicum UDP-glucosyltransferase, SEQ ID NO: 9 (protein, listed as Solanum lycopersicum)
chain: MATNLRVLMFPWLAYGHISPFLNIAKQLADRGFLIYLCSTRINLESIIKKIPEKYADSIHLIELQLPELPELPPHYHTTNGLPPHLNPTLHKALKMSKPNFSRILQNLKPDLLIYDVLQPWAEHVANEQNIPAGKLLTSCAAVFSYFFSFRKNPGVEFPFPAIHLPEVEKVKIREILAKEPEEGGRLDEGNKQMMLMCTSRTIEAKYIDYCTELCNWKVVPVGPPFQDLITNDADNKELIDWLGTKHENSTVFVSFGSEYFLSKEDMEEVAFALELSNVNFIWVARFPKGEERNLEDALPKGFLERIGERGRVLDKFAPQPRILNHPSTGGFISHCGWNSAMESIDFGVPIIAMPIHNDQPINAKLMVELGVAVEIVRDDDGKIHRGEIAETLKSVVTGETGEILRAKVREISKNLKSIRDEEMDAVAEELIQLCRNSNKSK
B5: S115N01 G2: UDP-glycosyltransferase, Avena strigosa, SEQ ID NO: 4 (protein, listed as Avena strigosa)
chain: MAVKDEQQSPLHILLFPFLAPGHLIPIADMAALFASRGVRCTILTTPVNAAIIRSAVDRANDAFRGSDCPAIDISVVPFPDVGLPPGVENGNALTSPADRLKFFQAVAELREPFDRFLADNHPDAVVSDSFFHWSTDAAAEHGVPRLGFLGSSMFAGSCNESTLHNNPLETAADDPDALVSLPGLPHRVELRRSQMMDPKKRPDHWALLESVNAADQKSFGEVFNSFHELEPDYVEHYQTTLGRRTWLVGPVALASKDMAGRGSTSARSPDADSCLRWLDTKQPGSVVYVSFGTLIRFSPAELHELARGLDLSGKNFVWVLGRAGPDSSEWMPQGFADLITPRGDRGFIIRGWAPQMLILNHRALGGFVTHCGWNSTLESVSAGVPMVTWPRFADQFQNEKLIVEVLKVGVSIGAKDYGSGIENHDVIRGEVIAESIGKLMGSSEESDAIQRKAKDLGAEARSAVENGGSSYNDVGRLMDELMARRSSVKVGEDIIPTNDGL
B6: S115N05 A7: UGTSL, Solanum lycopersicum cyanidin-3-O-glucoside 2-O-glucuronosyltransferase-like, SEQ ID NO: 5 (protein, listed as Solanum lycopersicum)
chain: MSPKLHKELFFHSLYKKTRSNHTMATLKVLMFPFLAYGHISPYLNVAKKLADRGFLIYFCSTPINLKSTIEKIPEKYADSIHLIELHLPELPQLPPHYHTTNGLPPNLNQVLQKALKMSKPNFSKILQNLKPDLVIYDILQRWAKHVANEQNIPAVKLLTSGAAVFSYFFNVLKKPGVEFPFPGIYLRKIEQVRLSEMMSKSDKEKELEDDDDDDDLLVDGNMQIMLMSTSRTIEAKYIDFCTALTNWKVVPVGPPVQDLITNDVDDMELIDWLGTKDENSTVFVSFGSEYFLSKEDMEEVAFALELSNVNFIWVARFPKGEERNLEDALPKGFLERIGERGRVLDKFAPQPRILNHPSTGGFISHCGWNSAMESIDFGVPIIAMPMHLDQPMNARLIVELGVAVEIVRDDDGKIHRGEIAETLKGVITGKTGEKLRAKVRDISKNLKTIRDEEMDAAAEELIQLCRNGN

What was measured:
[1] = Sweetness of reb M compared to a 10% sucrose solution
Description: The high purity reb M obtained in this invention, having a molecular weight of 1291.29, a molecular formula of C56H90O33, CAS registry number 1220616-44-3, and the structure presented in FIG. 1, is in the form of a white and odorless powder. The compound is about 200 times sweeter than sugar when compared to a 10% sucrose solution.

[2] = Catalytic test of in-vitro expressed UDP-glucosyltransferases, Rebaudioside A to Rebaudioside D (HPLC); type: biochemical; conditions: 0.5 mM Rebaudioside A, 30° C.; for Steviol glycoside conversion in reaction mixture, Reb A (Retention Time ~9.1 min): remaining substrate
Method: The prepared expression medium mix was added to the plasmid solution and the solution was allowed to incubate at 30° C. for 3 hours while mixing the mixture every 45 minutes. 5 μL of the mixture was frozen whereas the remainder was used for the catalytic test for the conversion of Rebaudioside A to Rebaudioside D.
(§1) 430 μL of a reaction mixture containing 0.5 mM Rebaudioside A, 3 mM MgCl2, 50 mM phosphate buffer (pH7.2) and 2.5 mM UDP-glucose was added to a 1.5 mL sterile microtube. 52 μL of the enzyme expression medium was added and the resulting mixture was allowed to react at 30° C. for 24 hours. 125 μL samples were taken after 2 hours, 16 hours and 24 hours and added to a 115 μL of 60% methanol and 10 μL of 2 N H2SO4. The quenched sample was centrifuged at 18,000 g for 2 minutes at RT. 200 μL was transferred to an HPLC vial and analyzed.
The HPLC assay was performed as follows:
as §1, with “to” for “to an”
The HPLC assay was performed as described in EXAMPLE 20.

[3] = Rubusoside conversion products with UGTSL, UGTSL2 and UGTLB by LC-MS; type: biochemical; conditions: reaction time UGTSL2 2 hrs, UGTLB 5 hrs, UGTSL 45 hrs
Method: (§2) Conversion of stevioside with UGTSL and UGTSL2 was conducted in similar manner to Example 28, and the conversion of rubusoside with UGTSL and UGTSL2 was conducted similarly to Example 29. Conversions of rubusoside and stevioside with UGTLB was conducted similarly to Example 32.
(§3) The reaction mixtures were analyzed by LCMS to determine all reaction products.

[4] = Stevioside conversion products with UGTSL, UGTSL2 and UGTLB by LC-MS; type: biochemical; conditions: reaction time UGTSL2 2 hrs, UGTLB 2 hrs, UGTSL 22 hrs
Method: as §2, §3

Molecule | times sweeter than sugar [1] | Steviol glycoside conversion in reaction mixture, Reb D (Retention Time ~5.8 min) [2] [% area] | Steviol glycoside conversion in reaction mixture, Reb A (Retention Time ~9.1 min) [2] [% area] | Steviol glycoside conversion in reaction mixture, Reb UNK (Retention Time ~6.7 min) [2] [% area] | Rubusoside conversion products, LC-MS peak area ratio: Reb D [3] [%] | Rubusoside conversion products, LC-MS peak area ratio: Reb E [3] [%] | Rubusoside conversion products, LC-MS peak area ratio: Rub [3] [%] | Rubusoside conversion products, LC-MS peak area ratio: Stev [3] [%] | Stevioside conversion products, LC-MS peak area ratio: Reb D [4] [%] | Stevioside conversion products, LC-MS peak area ratio: Reb E [4] [%] | Stevioside conversion products, LC-MS peak area ratio: Stev [4] [%]
C=C1C[C@@]23CC[C@H]4[C@@](C)(CCC[C@@]4(C)C(=O)O[C@@H]4O[C@H](CO)[C@@H](O)[C@H](O[C@@H]5O[C@H](CO)[C@@H](O)[C@H](O)[C@H]5O)[C@H]4O[C@@H]4O[C@H](CO)[C@@H](O)[C@H](O)[C@H]4O)[C@@H]2CC[C@]1(O[C@@H]1O[C@H](CO)[C@@H](O)[C@H](O[C@@H]2O[C@H](CO)[C@@H](O)[C@H](O)[C@H]2O)[C@H]1O[C@@H]1O[C@H](CO)[C@@H](O)[C@H](O)[C@H]1O)C3 [reb M, rebaudioside M] | about 200 times |  |  |  |  |  |  |  |  |  | 
B1 |  | 2.1 | 96.7 |  |  |  |  |  |  |  | 
B2 |  | 0.28 | 95.8 | 3.9 |  |  |  |  |  |  | 
B3 |  | 0.14 | 92.8 | 7.0 |  |  |  |  |  |  | 
B4 |  |  |  |  | 6.73 | 52.88 | 3.54 | 2.12 | 1.70 | 42.56 | 20.01
B5 |  | 0.6 | 99.4 |  |  |  |  |  |  |  | 
B6 |  |  | 46.7 | 23.3 | 3.45 | 35.88 | 7.82 | 2.37 | 0.54 | 49.68 | 25.24
